± gives the standard deviation of the averaged measurements.
B1: library; a variant is named by its letters at N, in order (parent)
chain: GCUGUCACCGAGAAACUGUGAAGUAUAUCUUAAACCUGGGCACUUAAAAGAUAUAUGGAGUUAGUAGUGCAACCUGCUCGGUCUGAUGAGUCCNNNNNNGGACGAAACAGC

Experiments:
[1] = variants of: B1; assay: FACS-Seq fitted mean relative fluorescence mCherry/BFP without ligand (log10 relative fluorescence); HEK293T; ligand: cyclic di-GMP (c-di-GMP-II aptamer); higher = higher reporter protein expression; conditions: ligand present: no
Procedure, shortened: (§1)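 HEK293T libraries were lentivirally transduced with an mCherry reporter carrying the ribozyme switch and an EF1α-BFP marker, enriched, and incubated for 48 h with or without ligand before sorting into 6 bins by mCherry/BFP. Genomic DNA from each bin was PCR-amplified, barcoded and sequenced on MiSeq. Fluorescence is the fitted normal mean of the bin counts. The fit used log10(mCherry/BFP), and means were scaled to five spiked-in control ribozymes.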

[2] = variants of: B1; assay: normalized RNA/DNA level without ligand (relative to sTRSVctl = 100) (log10 (% of sTRSVctl)); HEK293T; ligand: cyclic di-GMP (c-di-GMP-II aptamer); higher = less ribozyme self-cleavage, higher mRNA level; conditions: reporter: mCherry (pCS4076), ligand present: no
Procedure, shortened: (§2)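 Total RNA, extracted with EDTA 72 h after HEK293T cells were transfected with 4 µg per 6-well well of reporter-linked ribozyme switch library plasmids, was reverse-transcribed, amplified, barcoded and sequenced. Ligand, if used, was added 1 h before transfection. RNA level was derived from RNA reads divided by DNA reads and normalized to a spiked-in non-cleaving sequence or to the top sequences. This was multiplied by 100 and log10-transformed, with the top set of 25 sequences and a ≥100 DNA read minimum.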

[3] = variants of: B1; assay: FACS-Seq fitted mean relative fluorescence mCherry/BFP with ligand (log10 relative fluorescence); HEK293T; ligand: cyclic di-GMP (c-di-GMP-II aptamer); ligand concentration (+) FACS-Seq: 1 mM; higher = higher reporter protein expression; conditions: ligand present: yes
Procedure, shortened: as §1

[4] = variants of: B1; assay: normalized RNA/DNA level with ligand (relative to sTRSVctl = 100) (log10 (% of sTRSVctl)); HEK293T; ligand: cyclic di-GMP (c-di-GMP-II aptamer); ligand concentration (+) RNA-Seq: 1 mM; higher = less ribozyme self-cleavage, higher mRNA level; conditions: reporter: mCherry (pCS4076), ligand present: yes
Procedure, shortened: as §2

Row | Variant | FACS-Seq fitted mean (log10) [1] | normalized RNA/DNA level without ligand (log10) [2] | FACS-Seq fitted mean (log10) [3] | normalized RNA/DNA level with ligand (log10) [4]
1 | GUAGAU | -0.404 ± 0.035 | 1.55 ± 0.057 | -0.145 ± 0.055 | 1.72 ± 0.08
2 | GCUUCU | -0.15612 ± 8.5e-05 | 1.74 ± 0.019 | 0.0598 ± 0.018 | 1.87 ± 0.11
3 | GAAAGU | -0.387 ± 0.03 | 1.55 ± 0.044 | -0.0693 ± 0.089 | 1.71 ± 0.095
4 | AAGGGA | -0.6377 ± 0.005 | 1.38 ± 0.072 | -0.444 ± 0.023 | 1.5 ± 0.13
5 | UUACCA | -0.0643 ± 0.075 | 1.75 ± 0.055 | 0.275 ± 0.047 | 1.84 ± 0.1
6 | UAUAUC | -0.579 ± 0.13 | 1.71 ± 0.018 | -0.583 ± 0.2 | 1.85 ± 0.12
7 | CAUGAA | -0.704 ± 0.022 | 1.28 ± 0.092 | -0.4855 ± 0.00097 | 1.43 ± 0.12
8 | AGGAGA | -0.574 ± 0.012 | 1.37 ± 0.12 | -0.304 ± 0.011 | 1.48 ± 0.025
9 | CGCCAC | -0.0985 ± 0.057 | 1.69 ± 0.027 | 0.173 ± 0.026 | 1.84 ± 0.12
10 | UCUUGA | -0.685 ± 0.031 | 1.702 ± 0.0063 | -0.542 ± 0.027 | 1.84 ± 0.14
11 | AAUAAA | -0.411 ± 0.041 | 1.47 ± 0.097 | -0.166 ± 0.054 | 1.69 ± 0.069
12 | GACACU | -0.276 ± 0.038 | 1.705 ± 0.016 | -0.141 ± 0.073 | 1.83 ± 0.12
13 | GGAGGC | 0.132 ± 0.076 | 1.6 ± 0.065 | 0.234 ± 0.067 | 1.79 ± 0.072
14 | UAUAAA | -0.114 ± 0.051 | 1.66 ± 0.026 | 0.111 ± 0.097 | 1.79 ± 0.13
15 | ACUGAA | -0.493 ± 0.087 | 1.43 ± 0.09 | -0.161 ± 0.014 | 1.64 ± 0.074
16 | CUGAAA | -0.638 ± 0.031 | 1.28 ± 0.097 | -0.374 ± 0.059 | 1.43 ± 0.12
17 | UGAGUC | -0.147 ± 0.039 | 1.7273 ± 0.0012 | 0.117 ± 0.074 | 1.87 ± 0.14
18 | UGUAGU | 0.04 ± 0.16 | 1.66 ± 0.051 | 0.343 ± 0.011 | 1.86 ± 0.12

Row | Variant | FACS-Seq fitted mean (log10) [1] | normalized RNA/DNA level without ligand (log10) [2] | FACS-Seq fitted mean (log10) [3] | normalized RNA/DNA level with ligand (log10) [4]
19 | GACGAA | -0.377 ± 0.016 | 1.43 ± 0.12 | -0.01 ± 0.049 | 1.65 ± 0.085
20 | AUGGUG | -0.341 ± 0.087 | 1.56 ± 0.1 | -0.113 ± 0.021 | 1.7 ± 0.094
21 | CCAAUG | -0.6462 ± 0.0011 | 1.23 ± 0.16 | -0.334 ± 0.017 | 1.49 ± 0.018
22 | CAGAAA | -0.664 ± 0.055 | 1.15 ± 0.12 | -0.562 ± 0.02 | 1.28 ± 0.14
23 | AGCUGC | -0.105 ± 0.077 | 1.74 ± 0.044 | 0.255 ± 0.092 | 1.87 ± 0.14
24 | GUGGAA | -0.382 ± 0.021 | 1.4 ± 0.087 | -0.0891 ± 0.076 | 1.63 ± 0.092
25 | AUAUCC | -0.758 ± 0.046 | 1.73 ± 0.048 | -0.565 ± 0.012 | 1.9 ± 0.11
26 | GGACCC | 0.129 ± 0.17 | 1.86 ± 0.022 | 0.32 ± 0.061 | 1.93 ± 0.086
27 | AAGGUA | -0.681 ± 0.028 | 1.4 ± 0.091 | -0.372 ± 0.038 | 1.57 ± 0.13
28 | CACCCU | -0.383 ± 0.019 | 1.65 ± 0.082 | -0.109 ± 0.033 | 1.75 ± 0.038
29 | UUUUCG | -0.162 ± 0.14 | 1.78 ± 0.035 | 0.00347 ± 0.15 | 1.9 ± 0.12
30 | UAGGAA | -0.246 ± 0.044 | 1.49 ± 0.07 | -0.00386 ± 0.085 | 1.68 ± 0.16
31 | CAUAUA | -0.483 ± 0.05 | 1.3 ± 0.14 | -0.237 ± 0.014 | 1.51 ± 0.097
32 | UAAUGC | -0.174 ± 0.058 | 1.69 ± 0.032 | -0.398 ± 0.12 | 1.84 ± 0.073
33 | CGUUAU | -0.444 ± 0.047 | 1.42 ± 0.13 | -0.148 ± 0.06 | 1.61 ± 0.081
34 | CAGUUA | -0.724 ± 0.01 | 1.28 ± 0.15 | -0.4923 ± 0.0038 | 1.42 ± 0.041
35 | AAAGAC | -0.0292 ± 0.22 | 1.56 ± 0.036 | 0.33 ± 0.099 | 1.75 ± 0.09
